From the nanobody polyreactivity screen of Harvey et al. (2022)

Assay: yeast display, Sf9 membrane polyspecificity reagent, FACS + sequencing; frameworks hold sequencing errors
Method in brief: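 Nanobodies came from a synthetic yeast display library in Saccharomyces cerevisiae BJ5465, induced with galactose for 36–48 hours and stained for 1 hour at 4 °C with 10% biotinylated, detergent-solubilized Sf9 membrane reagent. Cells were enriched on streptavidin microbeads and then FACS-sorted, with low and high (top ~1%) gates set on anti-HA fluorescence for expression and streptavidin fluorescence for reagent binding. Each polyreactivity label reflects the gate a clone came from. Genes were amplified by colony PCR, sequenced by MiSeq 2 × 250 and filtered by CDR length.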

Sequence	polyreactivity (PSR sort gate)
QVQLVESGGGLVQAGGSLRLSCAASGSIFEGNGMGWNRQEPGNVRELVAAITFRSGSTYYADSVKGRFTISRDNAKNSVYLQMNSLKPEDTAVYYCAADEYYQVSAYDYWGQGTQVTVSS	low polyreactivity
QVQLVESGGGLVQAGGSLRLICPASGITFVYYAMVWYRQSPGKEMELVATNTKSGVSTYYADSVKGRFTISRDNAKNTVYLQMNSLKPEDTAVYYCAKEVSYRFYWTYDYWGQGTKVTVSS	low polyreactivity
QVQLVESGGGLVQAGGSLRLSCDASGSIFYIYAMGWSRQAPGKERELVATISGSGGSTHYADSVKGRFTISRDNAKNTVYLQMNSLKPEDTAVYYCDADVLPYGYYWGQGTQVTVSS	low polyreactivity
QVQLVESGGGLVQAGGSLRLSCAASGTFAFYTMGWYRQAPGKERELVAAISWDGGDTYYADSVKGRFTISRDNAKNNVYLQMNSLKPEDTAVYYCAAELGYYVYGSYYSYDYCGQGTQVTVSS	high polyreactivity
QVQLVESGGGLVQAGGSLRLTCAASGRIFPVYAMGWYRQAPGKERELVAAISGSGGSTYYADSVKGRFTISRDNAKKSVYLQMNSLKPEDTAVYYCAAVTTPRFSIGYEYWGQGTQVTVSS	low polyreactivity
QVQLVESGGGLVQAGGSLRLSCAASGRIFAPYAMGWYRQAPGQEREFVATITVSGARTRYADSVKGRFTISRDNAKNTVYLQMNSLKPEETAVYYCAASKFYSWRATRKVSYDYWGQGTQVTVSS	high polyreactivity
QVQLVESGGGLVQAGGSLRLSCAASGNTFRFYAMGWYRQAPGKERELVADITRGGSTNYADSVKGRFTISRDNAKNTVYLQMNSLKPEDTAVYYCAARPWYYTSSFYYGRYDYWGQGTQVTVSS	high polyreactivity
QVQLVESGVGLVQAGGSLRLRCAASARIFGWYTMGWNRQSPGKERELVADINFGGSTYYADSVKGRFTISRDNAKNTVYLLMKSLKSEYTAVFYCNADYSVYIIADEYDYWGQGTQVTVSS	low polyreactivity
QVQLVESGGGLVQAGGSLRLSCAASGGTFYANAMGWYREAPGKERELVATITSSSGSTSYADSVKGRFTISRDNAKNTVYLQMNSLKPEDTAVYYCAKDSHAQGPYRYKHYHHTGDYWGQGTQVTVSS	low polyreactivity
QVQLVESGGGLVQAGGNLRLSCAASGSIFAWYVMGWYRQPPGKERELVAGIDTSGGSTFYADSVKGRFTISRDNAKNTVYLQMNSLKPEDTAVYYCAADTWYRGPWEFDYWGQGTQVTVSS	low polyreactivity
QVQLVESWAGIVQAGGSLRVSCAASGSTFDRYAMGWYRQAPGKERELVAAISWSAGRTYYADSVKGRFTISRDNAKNTVYLQMNSLKPDDTAVYYCAADQIVSGTYDYYWGQGTHVTVSS	low polyreactivity
QVQLVESGGGLVQAGGSLRLSCAASGRSLRGYAMGWYREAPGNEWVFVAAISSRGGSTYYADSVKGRLTLSRDNAKNTVYVQMNSLKPEDSAVYYCAAQWGRWYYGFNYRGQGTQVTVSS	high polyreactivity
QVQLVESGGGLVQAGGSLRLSCAASGSIFNANAMGWYRPAPGKERELVAGIRSGSSTNYADSVKGRFTISRDNAKNTVYLQMNSLKPEDTAVYYCATEGYWVYGFDDEYWGQGTQVTVSS	low polyreactivity
QVQLVESGGGLVQAGGSLRLSCAASGRIFSKYAMGWYRQAPGKERELVASIRWRGDRTYYADSVKGRFTISRDNAKNTVYLQMNSLKTEDTAVYYCAADEPGYGVGYWTYPVVPYDYWGQGTQVTVSS	low polyreactivity
QVQLVESGGGLVQAGGSLRLSCAASGSIFYVYGMGWYRQAPGKERELVARITDSGGSTSYADSVKGRFTISRDNAKNTVYLQMNSLKPEDTAVYYCAAYVRPWYNYWGQGTQVTVSS	low polyreactivity
QVQLVESGGGLVEAGGSLSLTCAASGRPFQYYAMRWYRPAPGKEREFVAAITRTGARTYYAVSVKGRFTISRDNAKNTVYLQMNSLKPEATAVYYCAKSLTFYSWRDYGYWGQGTQVTVSS	high polyreactivity

Sequence	polyreactivity (PSR sort gate)
QVQLVESGGGIVQAGGSLRLSCAASGSILDPNAMGTYRQAPGKEREFVASISASGGSTYYADSVKGRFSISRDIAKNTVYLQLNSLKPEDTAVYYCATLQGDSSSQYDYWGQGTQVTVSS	high polyreactivity
QVQLVESGGGLVQAGGSLRLSCAASGSTFVSNAMGWYRPAPGKERELVAAINGSGGITYYADSVKGRFTISRDNAKNTVYLQMNSLKPEDTAVYYCAAEYDGPSTWVDYYYHYGYWGQGTQVTVSS	low polyreactivity
QVQLVESGGGLVQAGGSLRLISAASGSIFYRNAMGWYRQAPGKERDLVAAISSDGSTNYADSVKGRFTISRDNAKNTVYLQMNSLKPEDTAVYYCAAPWTQILDFWGQGTQVTVSS	low polyreactivity
QVQLVESGGGLVQAGGSLRLSCAASGRTLARNAMGWYRQAPGKERELVARIRDSGGSKYYADSVKGRFTISRDNAKNTVYLQMNSLKPEDTAVYYCAARSRLVYSYYTYWGQGTQVTVSS	high polyreactivity
QVQLVESGGGLVQAGGSLRLSCAASGITIREYAMGWYRQAPGKERELVASISGGGGSTSYADSVKGRFTISRDNAKNTVYLQMNSLKPEDTAVYYCATRYAIAGWVGYYYWGQGTQVTVSS	low polyreactivity
QVQLVESGGGLVQAGGSLRLSCAASGSTFVKSAMGLYRQAPGKERELVAAINWSGGNTYYADSVKGRFKISRYNAKNTVYLQMNSLKPEETAVYYCNADAYRSDFDYWGQGTQVTVSS	high polyreactivity
QVQLVESGGGLVQAGGSLRLSCAASGPTFSKANAMGWYRQAPVKERELVAAITDGGSTYADSVKGRFTISRDNAKNTVYLQINSLKPEDTAVYYCAKDTEVFYDASYDYWGQGTQVTVSS	low polyreactivity
QVQLVESGGGLVQAGGSLRLSCAASGRIFQYYAMGWYRQAPGKERELVAAISGRGTSTYYADSVKGRFTISRDNAKNTVYLQMNRLKPEDTAVYYCNADINYKSYFIHTFTIIPYGYWGQGTLVTVSS	low polyreactivity
QVQLVESGGGLVQAGGSLRLSCADSGFTFTLYAMGWYRQAPGKERELVAAISGIGGSTYYSDSVKGRFTISSDNAKNTVYLQMNSLKPEDTAVYYCNAVSGDSGDYWGQGTQVNVSS	low polyreactivity
QVQLVESGGGLVQAGGSLRLSCAASGSTFTVYAMGWYRQAPGKERELVAAIRDGSSTNYADSVKGRFTISRDNAKNTVYLQMNSLKPEDTAVYYCNAPYPPTGYGDDDYWGQGTQVTVSS	low polyreactivity
QVQLVESGGGLVQAGGSLRLSCAASGRTFGYNAMGWYRQAPGKERELVAAISWRSGGTYYADSVKGRFTISRDNANNSVYLQMISLKPEDTAVYYCARRSPHHGRDYWGQGTQVTVSS	low polyreactivity
QVQLVETGGGLVQAGGSLRLSCAASGITLYFYAMGWSRQAPGKEREMVAGISGSVGSTHYADSVKGRFTISRDNAKNTVYSQMNSLKPEDTAVYYCDAAQVGYYVASVTYGYWGQGTQVTVSS	high polyreactivity
QVQHVESGGGLVQAGGSLRLSCAASGSTFGWYAMGWYRQAPGKVRELVAAITRRGTRTYYADSVKGRFTISRDNAKNTVYLQMNSLKPEDTAVYYCNARGFPGKFGYWGQGTQVTVSS	high polyreactivity
EVQLVESGGGLVQAGGSLRLSCAASGGTFRYYAMGWSRQAPGKERELVASSSSGGSTNYADSVKGRFTISRDNAKNTVYLQMNRLKPEDTAVYYCARRRFYYGHHPGSSWYDYWGQGTQVSVSS	low polyreactivity
QVQLVESGGGIDQAGGSLRLSCAASGNTFYWYAMGWYRQAPGKERDLVAAISRGGRTNYADSVKGRFTISRDNAKNTVYLQMNSLKPEDTAVYFCAKDSNYPQPSKGWYRYDYWGLGTQVTVSS	high polyreactivity
